PMC8819685

Molecular target: Human plasminogen (human)
Sequence (P00747 20-810): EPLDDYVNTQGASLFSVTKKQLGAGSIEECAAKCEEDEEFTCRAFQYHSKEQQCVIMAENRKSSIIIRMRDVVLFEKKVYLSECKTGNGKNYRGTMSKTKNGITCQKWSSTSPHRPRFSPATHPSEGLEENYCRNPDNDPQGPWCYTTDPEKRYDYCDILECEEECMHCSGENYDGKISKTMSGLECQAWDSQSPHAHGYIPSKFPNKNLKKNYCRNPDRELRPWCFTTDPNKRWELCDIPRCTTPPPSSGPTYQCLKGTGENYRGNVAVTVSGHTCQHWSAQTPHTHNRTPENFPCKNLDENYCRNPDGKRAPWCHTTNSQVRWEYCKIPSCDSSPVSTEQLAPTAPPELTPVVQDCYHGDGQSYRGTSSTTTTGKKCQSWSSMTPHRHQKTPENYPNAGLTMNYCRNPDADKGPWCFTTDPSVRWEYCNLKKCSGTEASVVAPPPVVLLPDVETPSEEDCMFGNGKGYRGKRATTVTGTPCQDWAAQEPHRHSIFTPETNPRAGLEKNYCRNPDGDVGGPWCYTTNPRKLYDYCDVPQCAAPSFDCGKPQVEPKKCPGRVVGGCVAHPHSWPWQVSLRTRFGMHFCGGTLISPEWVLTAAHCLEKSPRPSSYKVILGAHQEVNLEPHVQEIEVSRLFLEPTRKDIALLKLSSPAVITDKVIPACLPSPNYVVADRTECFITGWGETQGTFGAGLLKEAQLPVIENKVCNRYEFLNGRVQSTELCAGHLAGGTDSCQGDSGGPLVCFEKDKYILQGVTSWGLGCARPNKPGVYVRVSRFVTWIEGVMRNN

B1: EPF3, fibrinolytic protein from Pheretima vulgaris (enzyme)
chain: ILGGTEARVGEIPWQLSQQRGGSHSCGASLLRPGSALSAAHCVDGAPPADVRIVAGLHLRSDESTAVASLAESFLIHPSYNVGEGTFPNDIAIIYLLTNINSAPVENIDFALLPPDNVEQFVGFTCVLSGWGRTSASNVLPDALQKVSIDVITTAECDSRMAAVAGADCTDAHIAVFDPALQKGSCNGDSGGPMNCPLSGEFVVAGVTSWGISGGGACLPEYPSVYTRTGFYRQWIIDNIR
  plasminogen activation on fibrin plates: fibrinolytic zone of the mixture of EPF3 and plasminogen against that of EPF3 alone (3, 6, 18 h, 37°C): 20.2%
